# What was measured:
# Assay in all cases: fluorescence anisotropy
# Settings in all cases: unmodified in vitro transcript; FA: 5 nM labeled tRNA, 25 mM Tris-HCl pH 8, 50 mM NaCl, 1 mM MgCl2, room temperature, 30 min
# [1] = system: MBP-ERS2.5W P14R (Homo sapiens)
# [2] = system: MBP-ERS2.5W E205G (Homo sapiens)
# [3] = system: MBP-ERSRC E205G (Homo sapiens)
substance,measurement,setting,value
tRNAGlu(TTC),Kd,[1],94 nM
same,Kd,[2],54.3 nM
same,Kd,[3],277 nM
